Measured values published in patent publication US20240132617A1 (VISTERRA, published 2024).

Target: T1, human C3b (human, UniProt P01024 23-667; P01024 749-1663, limits assumed)
T1 construct: C3b is its two-chain fragment (beta chain plus alpha' chain, without C3a); also called complement component 3b
Experiment: antibody levels measured by capture on human C3b versus Cynomolgus C3b (FIG. 1C and FIG. 1D)
Protocol: In this study, pharmacokinetics of anti-C3b antibodies was determined in non-human primates. First, Ab1 (anti-C3b VHH fused to modified IgG4 Fc) and control Ab (IC12; control antibody) were intravenously administered at 10 mg/kg to Cynomolgus monkeys. Plasma samples were collected pre-administration and at 30 minutes, 6 hr, 24 hr, 48 hr, 120 hr, 336 hr, 456 hr, 672 hr, and 792 hr post administration, and % of antibody remaining was measured.
To confirm that the C3b antibody of the present invention binds to human C3b with high affinity, in addition to Cynomolgus C3b, concentrations of antibodies to human C3b or Cynomolgus C3b were measured.

T1 sequence (P01024 23-667 limits assumed, chain 1 of 2): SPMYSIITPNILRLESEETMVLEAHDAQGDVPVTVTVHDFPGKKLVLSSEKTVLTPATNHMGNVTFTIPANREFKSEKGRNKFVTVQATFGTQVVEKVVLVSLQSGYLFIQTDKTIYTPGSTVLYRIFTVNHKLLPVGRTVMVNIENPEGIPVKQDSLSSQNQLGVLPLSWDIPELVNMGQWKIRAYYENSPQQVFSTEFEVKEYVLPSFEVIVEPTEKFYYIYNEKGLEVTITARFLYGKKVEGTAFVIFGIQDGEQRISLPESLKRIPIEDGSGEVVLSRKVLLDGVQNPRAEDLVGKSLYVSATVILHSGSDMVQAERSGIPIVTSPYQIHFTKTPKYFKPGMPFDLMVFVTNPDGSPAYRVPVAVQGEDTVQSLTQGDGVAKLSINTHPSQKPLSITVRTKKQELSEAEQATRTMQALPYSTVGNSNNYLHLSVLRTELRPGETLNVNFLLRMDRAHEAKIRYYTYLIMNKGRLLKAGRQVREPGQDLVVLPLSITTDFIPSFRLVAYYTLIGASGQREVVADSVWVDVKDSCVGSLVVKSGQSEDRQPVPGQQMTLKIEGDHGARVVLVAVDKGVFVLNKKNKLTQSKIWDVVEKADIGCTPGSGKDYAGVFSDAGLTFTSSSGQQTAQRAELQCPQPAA
T1 sequence (P01024 749-1663 limits assumed, chain 2 of 2): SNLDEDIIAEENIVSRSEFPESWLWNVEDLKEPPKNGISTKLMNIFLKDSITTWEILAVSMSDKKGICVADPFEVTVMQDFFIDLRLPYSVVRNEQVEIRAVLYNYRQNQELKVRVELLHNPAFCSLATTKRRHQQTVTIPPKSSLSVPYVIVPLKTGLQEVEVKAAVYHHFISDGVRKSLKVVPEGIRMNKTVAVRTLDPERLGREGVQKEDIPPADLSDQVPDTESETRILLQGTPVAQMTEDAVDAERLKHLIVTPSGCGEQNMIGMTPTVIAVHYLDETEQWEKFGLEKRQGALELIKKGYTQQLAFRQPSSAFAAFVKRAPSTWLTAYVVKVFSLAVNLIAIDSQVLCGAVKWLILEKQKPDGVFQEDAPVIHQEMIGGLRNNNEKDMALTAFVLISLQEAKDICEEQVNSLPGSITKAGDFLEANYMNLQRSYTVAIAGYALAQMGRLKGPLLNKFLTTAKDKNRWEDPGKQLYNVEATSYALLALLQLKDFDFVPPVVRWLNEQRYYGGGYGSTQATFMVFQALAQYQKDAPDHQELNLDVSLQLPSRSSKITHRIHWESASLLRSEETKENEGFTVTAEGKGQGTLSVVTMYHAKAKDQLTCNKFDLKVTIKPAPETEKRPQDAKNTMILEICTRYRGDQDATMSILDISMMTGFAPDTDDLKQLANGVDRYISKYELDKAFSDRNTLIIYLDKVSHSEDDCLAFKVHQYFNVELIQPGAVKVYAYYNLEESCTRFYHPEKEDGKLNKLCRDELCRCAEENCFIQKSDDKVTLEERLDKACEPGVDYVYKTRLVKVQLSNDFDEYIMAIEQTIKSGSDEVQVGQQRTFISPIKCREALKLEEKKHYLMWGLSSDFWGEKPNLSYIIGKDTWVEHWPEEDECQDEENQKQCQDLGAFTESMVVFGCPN

- fold greater affinity as compared to Cynomolgus C3b: ~100 fold
B1: Ab1 (anti-C3b VHH fused to modified IgG4 Fc) (Fc fusion)
chain: EVQLLESGGGLVQPGGSLRLSCAASGRTFSNYHMGWFRQAPGQGREFVATIIRTGTTIYYADSVKGRFTISRDNSKNTLYLQMNSLRAEDTAVYYCAAATSGWHIKTVTPYEYWGQGTLVTVSSESKYGPPCPPCPAPEVEGGPSVFLFPPKPKDTLMISRTPEVTCVVVGVSQEDPEVQFNWYVDGVEVHNAKTKPREEQFNSTYRVVSVLQVLHVDWLNGKEYKCKVSNKGLPSSIEKTISKAKGQPREPQVYTLPPSQEEMTKNQVSLTCLVKGFYPSDIVVEWESNGQPENNYKTTPPVLDSDGSFFLYSRLTVDKSRWQEGNVFSCSVMHEALHNHYTQKSLSLSLGK
notes: In the assay Ab1 was in plasma of dosed Cynomolgus monkeys; also called anti-C3b Ab1; C3b antibody
